For three molecules, fold improvement of the pH dependency of the dissociation rate (pH 5.8 against pH 7.4) over TOCILIZUMAB and fold increase of the pH dependence of the dissociation rate (pH 5.8 against pH 7.4) over TOCILIZUMAB results are on record in patent WO2010106812A1.

Numbering of substitutions follows the chain as printed.

In the assay the target is soluble recombinant human IL-6 receptor (human) (UniProt P08887). Kind of assay: Biacore T100, biotinylated SR344 immobilised via streptavidin as model of membrane-type IL-6 receptor, dissociation at pH 7.4 and pH 5.8, 37 degrees C.
soluble recombinant human IL-6 receptor (human), sequence (P08887 20-344, form in doubt): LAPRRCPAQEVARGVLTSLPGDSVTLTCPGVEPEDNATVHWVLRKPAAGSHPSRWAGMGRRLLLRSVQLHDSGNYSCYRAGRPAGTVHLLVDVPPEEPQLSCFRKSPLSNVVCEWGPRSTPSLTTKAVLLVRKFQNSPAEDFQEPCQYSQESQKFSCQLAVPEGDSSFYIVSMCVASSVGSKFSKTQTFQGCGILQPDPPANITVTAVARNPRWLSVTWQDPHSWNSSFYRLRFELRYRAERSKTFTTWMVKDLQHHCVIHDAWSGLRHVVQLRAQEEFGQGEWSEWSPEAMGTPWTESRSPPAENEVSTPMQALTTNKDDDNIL

B1: Fv3-M73 (antibody, V domains shown)
VH: QVQLQESGPGLVKPSETLSLTCAVSGHSISHDHAWSWVRQPPGEGLEWIGFISYSGITNYNPTLQGRVTISRDNSKNTLYLQMNSLRAEDTAVYYCARSLARTTAMDYWGEGTLVTVSS
VL: DIQMTQSPSSLSASVGDSVTITCQASRDISSHLNWYQQKPGKAPELLIYYGSHLLSGVPSRFSGSGSGTDFTFTISSLEAEDAATYYCGQGNRLPYTFGQGTKVEIER
With B1, the fold improvement of the pH dependency of the dissociation rate (pH 5.8 against pH 7.4) over TOCILIZUMAB is 11 times.

B2: H3pI/L73 (antibody, human IgG1, kappa, V domains shown)
VH: QVQLQESGPGLVKPSETLSLTCAVSGHSISHDHAHSWVRQPPGEGLEWIGYISYSGITNYNPSLKGRVTISRDTSKNQFSLKLSSVTAADTAAYYCARSLARTTAMDYWGEGTLVTVSS
VL: B1 VL with R27Q, D28H, L55H
Consider B2, for which the fold increase of the pH dependence of the dissociation rate (pH 5.8 against pH 7.4) over TOCILIZUMAB was determined as 2.6 times.

B3: Fv4-M73 (antibody, V domains shown)
VH: B1 VH with T63S
VL: B1 VL with R27T
Turning to B3, the fold improvement of the pH dependency of the dissociation rate (pH 5.8 against pH 7.4) over TOCILIZUMAB turned out to be 10 times.
